Experimental data as given in article PMC12137173, “Cdc48 plays a crucial role in redox homeostasis through dynamic reshaping of its interactome during early stationary phase” (Redox Biology, 2025).

Target: T1, Shp1/Ubx1 (purified) (S. cerevisiae, UniProt P34223 1-423)
T1 construct: Shp1/Ubx1, UBX-family cofactor of Cdc48, S. cerevisiae; also called Shp1/Uxb1; source: purified
T1 sequence (looked up): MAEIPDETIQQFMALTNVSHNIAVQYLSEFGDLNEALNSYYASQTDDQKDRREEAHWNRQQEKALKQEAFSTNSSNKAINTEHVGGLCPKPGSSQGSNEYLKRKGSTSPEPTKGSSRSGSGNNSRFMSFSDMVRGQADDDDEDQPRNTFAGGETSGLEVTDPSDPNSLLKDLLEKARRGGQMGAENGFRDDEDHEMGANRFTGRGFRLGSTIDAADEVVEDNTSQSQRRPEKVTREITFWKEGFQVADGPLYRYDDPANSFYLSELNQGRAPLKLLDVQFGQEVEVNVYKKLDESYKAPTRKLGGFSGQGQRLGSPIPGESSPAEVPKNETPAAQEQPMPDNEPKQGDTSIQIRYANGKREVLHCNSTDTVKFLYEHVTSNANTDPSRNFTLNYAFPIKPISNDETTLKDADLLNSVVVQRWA
Assay: ITC; 25 °C; 220 μM Shp1 injected into 16 μM Cdc48-NTD (WT or C115S); 2 μL injections, 150 s spacing; Malvern MicroCal PEAQ-ITC
Settings: both partners purified

B1: Cdc48-NTD-WT (domain or fragment)
chain: MGEEHKPLLDASGVDPREEDKTATAILRRKKKDNMLLVDDAINDDNSVIAINSNTMDKLELFRGDTVLVKGKKRKDTVLIVLIDDELEDGACRINRVVRNNLRIRLGDLVTIHPCPDIKYATRISVLPIADTIEGITGNLFDVFLKPYFVEAYRPVRKGDHFVVRGGMRQVEFKVVDVEPEEYAVVAQDTIIHWEGEPINREDEENNMN
modifications: Construct limits are not printed. Taken by convention as the equivalent of human p97 N domain 1-199, using the +10 offset shown by Cys209 hVCP = Cys219 Cdc48.
Kd: 14.2 µM
